± gives the uncertainty stated by the source.
Assay: self-splicing fitness, log relative to wild type (ln ratio); higher = more splicing; Tetrahymena group I intron in knt gene, E. coli kanamycin selection, DiMSum; sequences stand for … in CUCUCU…GGAGGGAAAAGUUAUCAGGCAUGCACCUGGUAGCUAGUCUUUAAACCAAUAGAUUGCAUCGGUUUAAAAGGCAAGACCGUCAAAUUGCGGGAAAGGGGUCAACAGCCGUUCAGUACCAAGUCUCAGGGGAAACUUUGAGAUGGCCUUGCAAAGGGUAUGGUAAUAAGCUGACGGACAUGGUCCUAACCACGCAGCCAAGUCCUAAGUCAACAGAUCUUCUGUUGAUAUGGAUGCAGUUCACAGACUAAAUGUCGGUCGGGGAAGAUGUAUUCUUCUCAUAAGAUAUAGUCGGACCUCUCCUUAAUGGGAGCUAGCGGAUGAAGUGAUGCAACACUGGAGCCGCUGGGAACUAAUUUGUAUGCGAAAGUAUAUUGAUUAGUUUUGGAGUACUCGUGGUCG
Summary of the method: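 The eight P1ex-region nucleotides of an intron in the knt kanamycin-resistance gene on pET-22b(+) were all randomised and the library put into E. coli BL21(DE3). Six replicate transformations were grown overnight at 37°C or 30°C on LB agar with or without 25 μg/mL kanamycin, together with 100 μg/mL carbenicillin, 50 μM IPTG and 0.2% rhamnose. Colonies were pooled and amplicon-sequenced on an Illumina HiSeq 2500. Fitness from DiMSum is the error-weighted combination of wild-type-normalised replicate fold changes, kanamycin over none.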

Row | Sequence | self-splicing fitness (ln) (30 °C) | self-splicing fitness (ln) (37 °C)
1 | GUCCAGCAAUAUUACGGUUA | -0.0348 ± 0.05 | 0.165 ± 0.055
2 | ACCCAGCAAUAUUACGAUCG | -1.92 ± 0.073 | -0.696 ± 0.096
3 | GGUAAGCAAUAUUACGACGU | 0.151 ± 0.1 | 0.677 ± 0.13
4 | GCCGAGCAAUAUUACGGUUU | -2.38 ± 0.098 | -0.815 ± 0.095
5 | GAGUAGCAAUAUUACGUAAC | -2.12 ± 0.1 | -2.95 ± 0.17
6 | CCGCAGCAAUAUUACGUGAU | -2.62 ± 0.15 | -2.31 ± 0.2
7 | UGUCAGCAAUAUUACGGCAU | -3.01 ± 0.15 | -2.48 ± 0.23
8 | CAGCAGCAAUAUUACGGGAC | -3.71 ± 0.22 | -2.46 ± 0.27
9 | GGUUAGCAAUAUUACGGUUG | -2.73 ± 0.32 | -1.57 ± 0.33
10 | ACCCAGCAAUAUUACGGGCC | -3.49 ± 0.18 | -1.45 ± 0.14
11 | GUGGAGCAAUAUUACGAAAU | -4.22 ± 0.36 | -2.05 ± 0.29
12 | UCACAGCAAUAUUACGGGUU | -3.77 ± 0.16 | -2.33 ± 0.12
13 | GCCUAGCAAUAUUACGAUGC | -1.01 ± 0.081 | 0.0478 ± 0.13
14 | GCGUAGCAAUAUUACGUUGG | -2.62 ± 0.24 | -2.96 ± 0.32
15 | GUAUAGCAAUAUUACGUACA | -2.07 ± 0.28 | -0.449 ± 0.23
16 | GUCAAGCAAUAUUACGAAUA | -1.85 ± 0.16 | -1.42 ± 0.14
17 | UACAAGCAAUAUUACGCUUC | -4.25 ± 0.42 | -3.02 ± 0.25
18 | AUCAAGCAAUAUUACGAACU | -0.00363 ± 0.11 | 0.0259 ± 0.11
19 | UGUUAGCAAUAUUACGACAC | -3.43 ± 0.47 | -2.08 ± 0.43
20 | AUACAGCAAUAUUACGUCUC | -2.98 ± 0.15 | -2.27 ± 0.14
21 | AAAAAGCAAUAUUACGAGUA | -1.68 ± 0.12 | -0.884 ± 0.11
22 | ACAGAGCAAUAUUACGACCA | -0.827 ± 0.21 | 
23 | UUCCAGCAAUAUUACGUCAG | -1.75 ± 0.077 | -1.19 ± 0.097
24 | GCUUAGCAAUAUUACGAAUA | -2.05 ± 0.25 | -0.645 ± 0.18
25 | AUUAAGCAAUAUUACGUCUA | -0.611 ± 0.093 | 0.119 ± 0.091
26 | UCCCAGCAAUAUUACGGCAG | -4.36 ± 0.29 | -2.58 ± 0.2

Row | Sequence | self-splicing fitness (ln) (30 °C) | self-splicing fitness (ln) (37 °C)
27 | UGCUAGCAAUAUUACGAUAC | -2.57 ± 0.28 | -1.93 ± 0.28
28 | UAAGAGCAAUAUUACGCUAA |  | -1.77 ± 0.27
29 | UCCAAGCAAUAUUACGGCAA | -0.817 ± 0.095 | -0.0878 ± 0.095
30 | CGACAGCAAUAUUACGGGUG | -0.537 ± 0.043 | 0.0253 ± 0.063
31 | ACACAGCAAUAUUACGGAUU | -2.18 ± 0.096 | -1.45 ± 0.12
32 | CCAGAGCAAUAUUACGGGAA |  | 0.0973 ± 0.28
33 | GACAAGCAAUAUUACGCAUG | -2.33 ± 0.13 | -0.814 ± 0.14
34 | CACAAGCAAUAUUACGCGGU | -3.66 ± 0.15 | -2.04 ± 0.12
35 | ACGAAGCAAUAUUACGAAUA | -2.01 ± 0.26 | 0.937 ± 0.18
36 | UGUCAGCAAUAUUACGCGUA | -0.0687 ± 0.063 | 0.148 ± 0.073
37 | GUUUAGCAAUAUUACGGGUA | -3 ± 0.24 | -1.61 ± 0.17
38 | UACCAGCAAUAUUACGUAUC | -2.55 ± 0.15 | -0.118 ± 0.12
39 | UGAUAGCAAUAUUACGUAUA | -1.17 ± 0.18 | -1.53 ± 0.19
40 | GCCUAGCAAUAUUACGAGCG | -1.38 ± 0.1 | 0.0723 ± 0.13
41 | AGCGAGCAAUAUUACGUAUA | -3.86 ± 0.37 | -2.18 ± 0.29
42 | AUAUAGCAAUAUUACGUUUU | -2.98 ± 0.22 | -1.82 ± 0.22
43 | GUAUAGCAAUAUUACGCCUU | -2.11 ± 0.29 | -0.499 ± 0.24
44 | GCAGAGCAAUAUUACGUUCA | -2.06 ± 0.13 | -0.713 ± 0.1
45 | UUAAAGCAAUAUUACGUCUC | -2.76 ± 0.13 | -1.4 ± 0.13
46 | GUGCAGCAAUAUUACGCCGG | -2.21 ± 0.41 | 
47 | CCCCAGCAAUAUUACGAUUG | -3.58 ± 0.11 | -2.72 ± 0.14
48 | GCGGAGCAAUAUUACGACAG | -3.33 ± 0.5 | -1.09 ± 0.45
49 | GCAUAGCAAUAUUACGUAAA | -2.43 ± 0.074 | -1.05 ± 0.08
50 | GACGAGCAAUAUUACGUCCG | -3.22 ± 0.27 | -2.69 ± 0.36
51 | GCGGAGCAAUAUUACGUCUU | -2.3 ± 0.22 | -0.899 ± 0.22
52 | GAAGAGCAAUAUUACGCCAU |  | -1.61 ± 0.37

Row | Sequence | self-splicing fitness (ln) (30 °C) | self-splicing fitness (ln) (37 °C)
53 | AAUCAGCAAUAUUACGCGCG | 0.0814 ± 0.079 | -0.098 ± 0.1
54 | CGCCAGCAAUAUUACGUAUU | -3.2 ± 0.093 | -2.71 ± 0.15
55 | CUGUAGCAAUAUUACGCAGG | -3.56 ± 0.27 | -2.73 ± 0.2
56 | AGUAAGCAAUAUUACGUUGA | -3.1 ± 0.23 | -2.1 ± 0.24
57 | GUUUAGCAAUAUUACGCUUA | -1.24 ± 0.15 | -0.129 ± 0.12
58 | CCCAAGCAAUAUUACGAUCC |  | -2.85 ± 0.35
59 | AAAAAGCAAUAUUACGGGCG | -0.625 ± 0.075 | -0.721 ± 0.091
60 | CAGUAGCAAUAUUACGUGGG | -3.85 ± 0.29 | -1.92 ± 0.21
61 | CGGUAGCAAUAUUACGCCUU | -0.779 ± 0.11 | -0.542 ± 0.14
62 | GAACAGCAAUAUUACGAGGG | -3.29 ± 0.22 | -1.87 ± 0.22
63 | ACGCAGCAAUAUUACGCUUC | -2.75 ± 0.26 | -2.48 ± 0.22
64 | GCCCAGCAAUAUUACGGCGA | -0.6 ± 0.082 | -0.337 ± 0.1
65 | UUGGAGCAAUAUUACGAGUA |  | -2.45 ± 0.48
66 | ACACAGCAAUAUUACGGGGU | -3.14 ± 0.11 | -1.42 ± 0.087
67 | UCAAAGCAAUAUUACGAUGU | -1.09 ± 0.074 | -0.341 ± 0.081
68 | GAGAAGCAAUAUUACGACGA | -0.554 ± 0.066 | -0.104 ± 0.09
69 | GAGGAGCAAUAUUACGGGAA | -2.81 ± 0.26 | -1.84 ± 0.46
70 | GGCAAGCAAUAUUACGCUAA | -0.671 ± 0.089 | 0.1 ± 0.12
71 | AUGCAGCAAUAUUACGACCU | 0.132 ± 0.082 | 0.168 ± 0.087
72 | AGAUAGCAAUAUUACGUGGC | -3.18 ± 0.23 | -2.86 ± 0.32
73 | UUGGAGCAAUAUUACGGUUC | -2.38 ± 0.2 | -2.86 ± 0.3
74 | AAGAAGCAAUAUUACGUGCU | -2.37 ± 0.087 | -1.3 ± 0.082
75 | GAGCAGCAAUAUUACGGAUC | -0.51 ± 0.12 | -0.724 ± 0.12
76 | UAGAAGCAAUAUUACGACGA | -0.144 ± 0.1 | -0.0918 ± 0.1
77 | AAGCAGCAAUAUUACGCCCC | -0.65 ± 0.15 | -0.107 ± 0.19

Source: the supplement of paper PMC7877785
